Measurements from patent publication US20240247080A1, “GLP1/GIP/NPY2 RECEPTOR TRIPLE AGONISTS” (Boehringer Ingelheim International GmbH, priority 2022, published 2024).
Starred links: 1 amine or outer side, 2 acyl side, 3 side chain; linkers in the order of their positions; H or OH if unused. Non-standard residues stand in square brackets, D forms with d. Groups on a side chain read outwards from the residue. No end group written: not given here. *: point of attachment. C20 diacid = O=C(O)CCCCCCCCCCCCCCCCCCC(=O)*; C18 diacid = O=C(O)CCCCCCCCCCCCCCCCC(=O)*; γGlu = O=C(O)[C@H](CCC(=O)[*:2])N[*:1]; εLys = N[C@@H](CCCCN[*:1])C(=O)[*:2]; AEEA = NCCOCCOCC(=O)O; Aib = CC(C)(N)C(=O)O; OEG = OEG spacer

T1: human neuropeptide Y2 receptor (human, UniProt P49146 1-381)
T1 sequence (looked up): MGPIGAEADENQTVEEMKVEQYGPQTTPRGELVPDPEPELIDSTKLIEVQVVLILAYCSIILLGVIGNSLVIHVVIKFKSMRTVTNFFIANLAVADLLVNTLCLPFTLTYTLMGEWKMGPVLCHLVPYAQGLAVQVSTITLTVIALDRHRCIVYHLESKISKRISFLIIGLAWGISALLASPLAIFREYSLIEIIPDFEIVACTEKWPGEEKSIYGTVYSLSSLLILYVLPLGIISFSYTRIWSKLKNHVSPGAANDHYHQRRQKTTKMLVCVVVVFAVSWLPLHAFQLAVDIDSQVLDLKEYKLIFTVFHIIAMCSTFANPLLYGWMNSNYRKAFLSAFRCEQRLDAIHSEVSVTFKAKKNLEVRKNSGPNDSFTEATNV

T2: human GIP receptor (human, UniProt P48546 22-466)
T2 sequence (looked up): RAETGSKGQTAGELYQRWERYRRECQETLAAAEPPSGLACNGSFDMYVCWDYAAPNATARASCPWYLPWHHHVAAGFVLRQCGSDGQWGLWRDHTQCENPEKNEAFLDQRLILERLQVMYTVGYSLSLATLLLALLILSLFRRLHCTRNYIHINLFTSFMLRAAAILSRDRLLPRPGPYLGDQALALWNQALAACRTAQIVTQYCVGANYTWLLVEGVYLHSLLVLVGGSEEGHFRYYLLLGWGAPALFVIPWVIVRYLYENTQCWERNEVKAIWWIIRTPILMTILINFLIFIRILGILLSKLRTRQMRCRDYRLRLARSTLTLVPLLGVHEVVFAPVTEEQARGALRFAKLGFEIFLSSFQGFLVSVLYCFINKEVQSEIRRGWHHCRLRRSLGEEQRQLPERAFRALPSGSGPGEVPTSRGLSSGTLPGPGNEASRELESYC

T3: human GIP receptor (human, UniProt P48546 22-466)
T3 sequence (looked up): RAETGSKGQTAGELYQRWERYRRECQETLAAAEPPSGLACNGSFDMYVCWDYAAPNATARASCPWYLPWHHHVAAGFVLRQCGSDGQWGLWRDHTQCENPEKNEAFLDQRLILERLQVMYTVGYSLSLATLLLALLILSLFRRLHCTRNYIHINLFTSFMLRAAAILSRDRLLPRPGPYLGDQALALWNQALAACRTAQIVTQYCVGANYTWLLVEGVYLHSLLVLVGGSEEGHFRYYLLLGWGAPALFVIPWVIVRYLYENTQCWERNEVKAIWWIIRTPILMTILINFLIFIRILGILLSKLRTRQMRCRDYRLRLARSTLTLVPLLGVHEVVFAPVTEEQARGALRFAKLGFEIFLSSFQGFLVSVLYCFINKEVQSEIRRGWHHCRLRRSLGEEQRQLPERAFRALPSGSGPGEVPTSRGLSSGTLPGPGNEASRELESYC

T4: human neuropeptide Y2 (NPY2) receptor (human, UniProt P49146 1-381)
T4 sequence (looked up): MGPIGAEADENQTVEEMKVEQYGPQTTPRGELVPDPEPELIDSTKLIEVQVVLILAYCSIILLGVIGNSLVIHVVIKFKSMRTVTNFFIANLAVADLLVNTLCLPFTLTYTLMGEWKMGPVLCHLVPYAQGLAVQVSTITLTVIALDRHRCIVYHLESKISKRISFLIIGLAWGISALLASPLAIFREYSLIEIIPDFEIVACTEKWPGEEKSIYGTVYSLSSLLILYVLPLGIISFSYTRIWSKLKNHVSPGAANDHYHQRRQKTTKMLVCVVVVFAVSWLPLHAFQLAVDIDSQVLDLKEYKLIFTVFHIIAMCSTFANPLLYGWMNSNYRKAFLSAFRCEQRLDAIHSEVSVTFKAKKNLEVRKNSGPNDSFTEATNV


How the values were obtained:
Assay in all cases: cell-based or functional assay
[1] = molecular target: T1, human neuropeptide Y2 receptor
human GIP receptor [2] = molecular target: T2, human GIP receptor
human GLP-1 receptor [3] = molecular target: human GLP-1 receptor (human, UniProt P43220 24-463)
human GIP receptor [4] = molecular target: T3, human GIP receptor; remark: listed apart in the source
[5] = molecular target: T4, human neuropeptide Y2 (NPY2) receptor
human GLP-1 receptor [6] = molecular target: human GLP-1 receptor (human, UniProt P43220 24-463); remark: listed apart in the source

| Binder | EC50 hNPY2R 0.5% hP (CreLuc) [1] [nM] | EC50 hNPY2R 100% hP (CreLuc) [1] [nM] | EC50 hGIPR 0.5% hP (CreLuc) (human GIP receptor [2]) [nM] | EC50 hGIPR 100% hP (CreLuc) (human GIP receptor [2]) [nM] | EC50 hGLP1R 0.5% hP (CreLuc) (human GLP-1 receptor [3]) [nM] | EC50 hGLP1R 100% hP (CreLuc) (human GLP-1 receptor [3]) [nM] | EC50, CreLuc assay, 0.5% hP (human GIP receptor [4]) [nM] | EC50, CreLuc assay, 100% hP (human GIP receptor [4]) [nM] | EC50, CreLuc assay, 0.5% hP [5] [nM] | EC50, CreLuc assay, 100% hP [5] [nM] | EC50, CreLuc assay, 0.5% hP (human GLP-1 receptor [6]) [nM] | EC50, CreLuc assay, 100% hP (human GLP-1 receptor [6]) [nM] |
| --- | --- | --- | --- | --- | --- | --- | --- | --- | --- | --- | --- | --- |
| Y[Aib]EGTFTSDYSI[Aib]LEKQAQ[Aib]AFVQWLIK([OEG-OEG-γGlu-γGlu-γGlu-C18 diacid])GGPSEGASLRHYYNWLTRQRY-NH2 (also: TFA salt) [Compound 266] | 7.2 | 22.9 | 0.13 | 0.65 | 0.1 | 2.21 |  |  |  |  |  |  |
| Y[Aib]EGTFTSDYSI[Aib]LEKQAE[Aib]AFVEWLIK([γGlu-γGlu-γGlu-γGlu-C18 diacid])GGPSEGASLRHYYNWLTRQRY-NH2 (also: TFA salt) [Compound 262] | 13.2 | 58.2 | 0.08 | 0.53 | 0.13 | 4.28 |  |  |  |  |  |  |
| YXEGTFTSDYSIXLEKQAQXAFVEWLIKGGPSSGASLRHYYNWLTRQRY (Aib at 2, 13, 20; K28 side chain acylated with C18DA-gGlu-gGlu-gGlu-gGlu-gGlu-gGlu-eLys; C-terminal amide (NH2)) [Compound 259] | 10.7 | 29.3 | 0.22 | 0.91 | 0.09 | 2.55 |  |  |  |  |  |  |
| YXEGTFTSDYSIXLEXEAQXKFVEWLIKGGPSSGASLRHYYNWLTRQRY (Aib at 2, 13, 16, 20; K28 side chain: C20DA-gGlu-gGlu-gGlu-gGlu-gGlu-gGlu-eLys; C-terminal NH2) [Compound 16] |  |  |  |  |  |  | 0.66 | 4.53 | 28.8 | 197 | 1.48 | 30.3 |
| YXEGTFTSDYSIXLEKQAQXAFVQWLIKGGPSEGASLRHYYNWLTRQRY (Aib at 2, 13, 20; K28 side chain acylated with C18DA-gGlu-gGlu-gGlu-gGlu-gGlu-gGlu-eLys; C-terminal amide (NH2)) [Compound 265] | 8.83 | 23 | 0.39 | 0.79 | 0.1 | 2.13 |  |  |  |  |  |  |
| YXEGTFTSDYSIXLEKQAQXAFVQWLIKGGPESPASLRHYYNWLTRQRY (Aib at 2, 13, 20; K28 side chain: C18DA-gGlu-gGlu-gGlu-gGlu-gGlu; C-terminal NH2) [Compound 12] |  |  |  |  |  |  | 0.14 | 1.8 | 11.9 | 45.8 | 0.11 | 4.76 |
| YXEGTFTSDYSIXLEKQAQXAFVQWLIKGGPSSYVSLRHYYNWLTRQRY (Aib at 2, 13, 20; K28 side chain: C20DA-gGlu-gGlu-gGlu-gGlu-gGlu-gGlu-eLys; C-terminal NH2) [Compound 15] |  |  |  |  |  |  | 0.32 | 2.43 | 6.01 | 15.4 | 0.16 | 4.11 |
| YXEGTFTSDYSIXLEKQAQXAFVEWLIKGGPSSGASLRHYYNWLTRQRY (Aib at 2, 13, 20; K28 side chain acylated with C18DA-gGlu-gGlu-gGlu-gGlu-gGlu-OEG-OEG; C-terminal amide (NH2)) [Compound 261] | 24.1 | 64 | 0.18 | 1.15 | 0.15 | 3.91 |  |  |  |  |  |  |
| YXEGTFTSDYSIXLEKQAQXAFVEWLIKGGPSSGASLRHYLNLXTRQRY (Aib at 2, 13, 20, 44; K28 side chain: C20DA-gGlu-gGlu-gGlu-gGlu-gGlu-gGlu-eLys; C-terminal NH2) [Compound 17] |  |  |  |  |  |  | 0.43 | 2.23 | > 100 | 450 | 0.14 | 2.28 |
| YXEGTFTSDYSIXLEKQAQXAFVQWLIKGGPRYYASLRHYYNWLTRQRY (Aib at 2, 13, 20; K28 side chain: C20DA-gGlu-gGlu-gGlu-gGlu-gGlu-gGlu-eLys; C-terminal NH2) [Compound 14] |  |  |  |  |  |  | 0.71 | 2.22 | 6.85 | 28.5 | 0.4 | 7.13 |
| YXEGTFTSDYSIXLEKQAQXAFVEWLIKGGPSSGASLRHYYNWLTRQRY (Aib at 2, 13, 20; K28 side chain acylated with C18DA-gGlu-gGlu-gGlu-gGlu-gGlu-AHX; C-terminal amide (NH2)) [Compound 260] | 26.4 | 69.6 | 0.31 | 2.53 | 0.13 | 2.78 |  |  |  |  |  |  |
| Y[Aib]EGTFTSDYSI[Aib]LEKQAQ[Aib]AFVEWLIK([εLys-γGlu-γGlu-γGlu-γGlu-γGlu-C18 diacid])GGPSEPASLRHYYNWLTRQRY-NH2 (also: TFA salt) [Compound 263] | 15.8 | 83.2 | 0.12 | 1.5 | 0.32 | 5.21 |  |  |  |  |  |  |
| Y[Aib]EGTFTSDYSI[Aib]LEKQAQ[Aib]AFVQWLIK([γGlu-γGlu-γGlu-γGlu-C18 diacid])GGPSEGASLRHYYNWLTRQRY-NH2 (also: TFA salt) [Compound 268] | 9.86 | 47.3 | 0.17 | 1.01 | 0.08 | 1.55 |  |  |  |  |  |  |
| Y[Aib]EGTFTSDYSI[Aib]LEKQAQ[Aib]AFVEWLIKGGPSSGAS[Aib]RHYYNR[Aib]TRQRY-NH2 (not fully specified (residue 28); also: TFA salt) [Compound 13] |  |  |  |  |  |  | 0.09 | 0.77 | 9.54 | 31.5 | 0.05 | 0.92 |
| Y[Aib]EGTFTSDYSI[Aib]LEKQAQ[Aib]AFVQWLIK([εLys-γGlu-γGlu-γGlu-γGlu-γGlu-C18 diacid])GGPSEGASLRHYYNWLTRQRY-NH2 (also: TFA salt) [Compound 267] | 9.25 | 27.6 | 0.12 | 1.18 | 0.07 | 1.44 |  |  |  |  |  |  |
| Y[Aib]EGTFTSDYSI[Aib]LEKQAQ[Aib]AFVQWLIK([AEEA-AEEA-γGlu-γGlu-γGlu-γGlu-C20 diacid])GGPSEGASLRHYYNWLTRQRY-NH2 (also: TFA salt) [Compound 269] | 9.56 | 32.5 | 0.46 | 1.23 | 0.14 | 3.86 |  |  |  |  |  |  |
| Y[Aib]EGTFTSDYSI[Aib]LEKQAQ[Aib]AFVQWLIK([Glu-Glu-Glu-Glu-Glu-Glu-C18 diacid])GGPSEGASLRHYYNWLTRQRY-NH2 (also: TFA salt) [Compound 264] | 16.8 | 81.2 | 0.28 | 1.82 | 0.11 | 3.95 |  |  |  |  |  |  |
